From US20230250186A1 (published 2023) come the findings set out here.

One may read the EC50 as the concentration at which the effect is half-maximal. The Kd is the equilibrium constant for the complex coming apart. For orientation: koff means the first-order rate constant of dissociation. The term kon denotes the second-order rate constant of association.

For experiment [1], the target named is T1, CD38 protein on the surface of Raji, Daudi, Ramos and RPMI8226 cells (human, UniProt P28907 1-300).
T1 construct: whole, on cells; also called CD38 on the surfaces of Raji cells, Daudi cells, Ramos cells and RPMI8226 cells; cell surface antigen
Kind of experiment: flow cytometry on Ramos cells. In general terms: A flow cytometer gives signals particle by particle.
Procedure: (§1) The logarithmic growth phase cells were collected, adjusted to a cell density of 5×10⁶ cells/mL, and pre-cooled on ice. […] 100 μL of cells were taken, and an equal volume of the diluted antibody was added for reaction at 4° C. for 30 min in the dark. After the completion of reaction, the cells were washed twice. The cells were resuspended in 100 μL of the diluted PE Mouse Anti-Human IgG secondary antibodies (purchased from BD Pharmingen), and reacted at 4° C. in the dark for 30 min. After the completion of reaction, the cells were washed twice with a pre-cooled normal saline containing 2% FBS. The cells were resuspended in 400 μL of 1% paraformaldehyde. Flow cytometry (BD Calibur) was used to analyze the binding ability of antibodies to cell surface antigens.

Experiment [2] has as its target T1, CD38 protein on the surface of Raji, …. The experiment can be described thus: flow cytometry on Raji cells.
Procedure: as §1
The target is the same in experiment [3]. The experiment can be described thus: cell-based or functional assay.
For experiment [4] the target is unchanged. Kind of experiment: flow cytometry on RPMI8226 cells.
Procedure: as §1
For the next experiment, the target named is T2, CD38-His fusion protein (UniProt P28907 43-300, limits assumed).
T2 construct: also called target antigen CD38-His; not shown: His tag
The experiment can be described thus: ELISA on coated CD38-His, anti-human IgG HRP. Background: An ELISA detects its analyte on a solid surface through an enzyme-linked reagent.

Experiment [5] has as its target T1, CD38 protein on the surface of Raji, …. The experiment can be described thus: flow cytometry on Daudi cells.
Procedure: as §1
Experiment [6] has as its target T3, rat CD38 extracellular protein (rat, UniProt Q64244 45-303).
T3 construct: extracellular domain; Purchased; also called CD38 protein molecules of rats
T3 sequence (looked up): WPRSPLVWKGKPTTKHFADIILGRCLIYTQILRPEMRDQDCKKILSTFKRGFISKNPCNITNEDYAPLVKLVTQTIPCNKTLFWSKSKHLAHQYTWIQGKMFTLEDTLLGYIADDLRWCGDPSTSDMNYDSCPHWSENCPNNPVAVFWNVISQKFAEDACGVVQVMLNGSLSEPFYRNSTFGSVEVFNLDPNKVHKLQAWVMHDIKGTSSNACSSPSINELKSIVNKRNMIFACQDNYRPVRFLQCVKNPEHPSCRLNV
Kind of experiment: ELISA on coated CD38 extracellular protein.
Procedure: (§2) The CD38 extracellular proteins (Beijing Yiqiao Shenzhou Biotechnology Co., Ltd.) of different species of human (Human), mouse (Mouse), rat (Rat), cynomolgus monkey (Cynomolgus) and the like were respectively used to coat ELISA strips at 1 mg/ml at 40 overnight. After washing with PBST, 10% fetal bovine serum was added and blocked at 370 for 1 hour. […] After washing with PBST, horseradish peroxidase-labeled goat anti-human IgG HRP secondary antibodies (purchased from Thermo Fisher Scientific) was added and reacted at room temperature for 30 minutes. The plate was washed with PBST (5 times), and the remaining drops were removed as possible on the absorbent paper. 100 ml of TMB (purchased from eBioscience) was added to each well, and placed at room temperature (20±5° C.) in the dark for 1-5 min. 100 ml of 2N H₂SO₄ stop solution was added to each well to quench the substrate reaction, and the OD value was read at 450 nm with a microplate, to analyze the binding ability of the antibody to CD38 protein of different species.

Experiment [7] addresses T4, mouse CD38 extracellular protein (mouse, UniProt P56528 45-304).
T4 construct: extracellular domain; Purchased; also called CD38 protein molecules of mice
T4 sequence (looked up): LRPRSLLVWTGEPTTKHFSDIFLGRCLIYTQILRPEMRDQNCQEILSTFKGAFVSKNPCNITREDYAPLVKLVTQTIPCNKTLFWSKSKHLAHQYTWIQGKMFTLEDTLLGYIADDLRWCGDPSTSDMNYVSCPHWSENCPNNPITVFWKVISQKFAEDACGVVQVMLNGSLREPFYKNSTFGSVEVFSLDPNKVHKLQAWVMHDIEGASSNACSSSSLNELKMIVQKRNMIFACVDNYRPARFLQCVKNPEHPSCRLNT
Kind of experiment: ELISA on coated CD38 extracellular protein.
Procedure: as §2

For experiment [8], the target named is T5, cynomolgus monkey CD38 extracellular protein (cynomolgus monkey, UniProt Q5VAN0 44-301).
T5 construct: extracellular domain; Purchased; also called CD38 protein molecules of cynomolgus monkeys; Cynomolgus CD38
T5 sequence (Q5VAN0 44-301): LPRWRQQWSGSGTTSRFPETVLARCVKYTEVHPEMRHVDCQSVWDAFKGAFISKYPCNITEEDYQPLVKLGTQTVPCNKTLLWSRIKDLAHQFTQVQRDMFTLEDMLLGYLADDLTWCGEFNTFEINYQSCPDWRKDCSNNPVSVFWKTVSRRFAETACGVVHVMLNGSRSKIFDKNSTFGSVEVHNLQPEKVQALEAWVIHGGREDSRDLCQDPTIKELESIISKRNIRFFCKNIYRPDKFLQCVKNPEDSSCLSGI
The experiment can be described thus: ELISA on coated CD38 extracellular protein.
Procedure: as §2

A further experiment concerns the target BSA (BOVOGEN) (UniProt P02769 25-607). Kind of experiment: ELISA on coated protein, anti-human IgG HRP.
In experiment [9] the target is T6, antigen CD38 (UniProt P28907 43-300, limits assumed).
T6 construct: Soluble antigen; also called CD38 antigen
Kind of experiment: BIACORE SPR, antibody captured by anti-human IgG-Fab, CD38 as mobile phase.
Procedure: (§3) The antibody affinity was analyzed by BIACORE Biomacromolecule Interaction Apparatus (GE).

Experiment [10] deals with T6, antigen CD38. Kind of experiment: BIACORE SPR by the method of Example 4.
Procedure: as §3
In experiment [11] the target is T6, antigen CD38. Kind of experiment: binding curve of FIG. 9; method not clearly stated.

BSA (BOVOGEN), sequence (P02769 25-607 limits assumed): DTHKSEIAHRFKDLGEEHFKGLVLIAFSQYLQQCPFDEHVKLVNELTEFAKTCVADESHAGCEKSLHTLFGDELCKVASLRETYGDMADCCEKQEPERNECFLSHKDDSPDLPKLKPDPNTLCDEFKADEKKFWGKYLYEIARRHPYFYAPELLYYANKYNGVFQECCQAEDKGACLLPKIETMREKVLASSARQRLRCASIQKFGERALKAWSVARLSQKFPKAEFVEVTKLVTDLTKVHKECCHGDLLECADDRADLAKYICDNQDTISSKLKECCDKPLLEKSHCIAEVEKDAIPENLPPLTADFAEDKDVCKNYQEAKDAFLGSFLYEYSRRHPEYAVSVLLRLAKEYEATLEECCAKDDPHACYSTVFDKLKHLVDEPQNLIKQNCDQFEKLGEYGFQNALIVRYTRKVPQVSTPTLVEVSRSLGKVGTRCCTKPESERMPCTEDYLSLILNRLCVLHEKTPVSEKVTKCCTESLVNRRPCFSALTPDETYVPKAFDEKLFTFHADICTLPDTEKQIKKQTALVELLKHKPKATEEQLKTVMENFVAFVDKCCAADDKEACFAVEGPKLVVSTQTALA
Procedure for BSA (BOVOGEN): Various proteins, such as milk (Beijing Bomed Biotechnology Co., Ltd.), BSA (BOVOGEN), CD19 (Beijing Yiqiao Shenzhou Biotechnology Co., Ltd.), TROP2 (Beijing Yiqiao Shenzhou Biotechnology Co., Ltd.), CD47 (Beijing Magpel Biotech Technology Co., Ltd.), CD38 (Beijing Yiqiao Shenzhou Biotechnology Co., Ltd.), Gas6 (R&D) and AXL (ACRO Biosystems) were respectively used to coat ELISA strips at 1 mg/ml at 4° C. overnight. After washing with PBST, 10% fetal bovine serum was added and blocked at 37° C. for 1 hour. […] After washing with PBST, horseradish peroxidase-labeled goat anti-human IgG HRP secondary antibodies (purchased from ThermoFisher Scientific) was added and reacted at room temperature for 30 minutes. After washing the plate with PBST (5 times), the residual drops were removed as possible on the absorbent paper. 100 ml TMB (eBioscience) was added to each well and placed at room temperature (20±50) in the dark for 1-5 min. 100 ml of 2N H₂SO₄ stop solution was added to each well to quench the substrate reaction, and the OD value was read at 450 nm with a microplate reader to analyze the antibody-protein binding ability.
Procedure for CD38-His fusion protein: An ELISA plate was coated with a PBS solution containing 1 μg/ml of CD38-His fusion protein at 4° C. overnight. The plate was then washed with a PBS solution containing 0.01% Tween-20 (PBST). 10% fetal bovine serum was added to the PBST and blocked at 37° C. for 1 hour. […] After washing with PBST, horseradish peroxidase-labeled goat anti-human IgG HRP secondary antibodies (purchased from Thermo Fisher Scientific) was added and reacted at 37° C. for 30 minutes. Then, the plate was washed with PBST (5 times), and the residual liquid drops were removed as possible on an absorbent paper. 100 μl of TMB (purchased from eBioscience) was added to each well, and placed at room temperature (20±5° C.) in the dark for 1-5 minutes. 100 μl of 2N H₂SO₄ stop solution was added to each well to quench the substrate reaction. The OD value was read at 450 nm with a microplate reader, and the binding ability of the antibody to the target antigen CD38-His was analyzed.

B1: Daratumumab (DARZALEX) (antibody, V domains shown)
VH: EVQLLESGGGLVQPGGSLRLSCAVSGFTFNSFAMSWVRQAPGKGLEWVSAISGSGGGTYYADSVKGRFTISRDNSKNTLYLQMNSLRAEDTAVYFCAKDKILWFGEPVFDYWGQGTLVTVSS
VL: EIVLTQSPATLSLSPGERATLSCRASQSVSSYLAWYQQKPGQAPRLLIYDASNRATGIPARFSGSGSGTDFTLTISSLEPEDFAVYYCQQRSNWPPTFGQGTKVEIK
Turning to B1, the EC50 stood at 0.0951 µg/mL in experiment [1]; 0.0493 µg/mL in experiment [2]; 0.176 µg/mL in experiment [4]; 0.151 µg/mL with CD38-His fusion protein; 0.0509 µg/mL in experiment [5]. Also, the “ADCC EC50, Daudi target cells with NK92MI-CD16a effector cells (LDH release)” value in experiment [3] is 0.0046 µg/mL. For the same molecule, the “ADCC EC50, RPMI8226 target cells with NK92MI-CD16a effector cells (LDH release)” value in experiment [3] is 0.00494 µg/mL. For the same molecule, the “ADCC EC50, Raji target cells with NK92MI-CD16a effector cells (LDH release)” value in [3] is 0.017 µg/mL. Further, the “ADCC EC50, Ramos target cells with NK92MI-CD16a effector cells (LDH release)” value in experiment [3] was found to be 0.00301 µg/mL.

B2: humanized antibody SG003 (antibody, V domains shown)
VH: QVQLLESGGGLVQPGGSLKLSCVASGFDFSLYWMNWVRQAPGKGLEWIGKINPDSSTINYTPSLKDKFFISRDNAKNTLYLQMTKVRSEDTALYYCARLWIATGGFDYWGQGTTLTVSS
VL: EIVMTQSPASLSASLGQRATISCRASSSVSSSAFSYVHWYQQKSGQPPKLLIYLASNLESGVPARFSGSGSGTDFTLTIHPVESEDVATYYCHHSRELPFTFGSGTKLEIKR
notes: Full antibody expressed in CHO-S cells from vector pCMV-163 with a human IgG constant region; also called SG003 antibody
As for B2, the EC50 in experiment [1] stood at 0.0815 µg/mL; in experiment [2] it was 0.0344 µg/mL; with CD38-His fusion protein it was 0.0351 µg/mL; in experiment [5] it was 0.0367 µg/mL. Also, the “ADCC EC50, Daudi target cells with NK92MI-CD16a effector cells (LDH release)” value in experiment [3] stood at 0.00072 µg/mL. In [3], the “ADCC EC50, RPMI8226 target cells with NK92MI-CD16a effector cells (LDH release)” value is 0.00146 µg/mL. For the same molecule, the “ADCC EC50, Raji target cells with NK92MI-CD16a effector cells (LDH release)” value in experiment [3] was 0.00697 µg/mL. Besides, in experiment [3], the “ADCC EC50, Ramos target cells with NK92MI-CD16a effector cells (LDH release)” value was found to be 0.00069 µg/mL. Besides, the binding result is given as “no binding” in experiment [6], “no binding” in [7], “binds” in experiment [8] and “no binding” in the experiment with BSA (BOVOGEN). The molecule further displayed a Kd with antigen CD38 [9] of 0.321 nM.

B3: SG003M1 antibody (antibody, human IgG1, kappa, V domains shown)
VH: QVQLLESGGGLVQPGGSLKLSCVASGYNFSLYYMNWVRQAPGKGLEWIGKIQPESSTIQYTPSLKDKFFISRDNAKNTLYLQMTKVRSEDTALYYCARLWIGSGGFDYWGQGTTLTVSS
VL: EIVMTQSPASLSASLGQRASISCRASNSVSSSAYSYVHWYQQKSGQPPKLLIYLASNIQSGVPARFSGSGSGTDFTLTIHPVESEDVATYYCHHSRQLPSTFGSGTKLEIKR
notes: also called randomly mutated antibody SG003M1-3
With B3, in the experiment with antigen CD38 [10], the Kd was 0.239 nM, the koff turned out to be 0.000636 s⁻¹ and the kon is 2.66e+06 M⁻¹ s⁻¹. This molecule also registered an EC50 with antigen CD38 [11] of 0.0157 µg/mL.

B4: SG003M3 antibody (antibody, human IgG1, kappa, V domains shown)
VH: QVQLLESGGGLVQPGGSLKLSCVASGFDFSLYWMNWVRQAPGKGLEWIGKISPDSSSLNYTPSVKDKFFISRDNAKNTLYLQMTKVRSEDTALYYCARLWIATGGYNYWGQGTTLTVSS
VL: EIVMTQSPASLSASLGQRATISCRASNSVSTSAFSYVHWYQQKSGQPPKLLIYLASNLESGVPARFSGSGSGTDFTLTIHPVESEDVATYYCHHSREVPFTFGSGTKLEIKR
notes: as for B3
In the case of B4, in the experiment with antigen CD38 [11], the midpoint of the response, the EC50, lay at 0.0061 µg/mL.

B5: SG003M2 antibody (antibody, human IgG1, kappa, V domains shown)
VH: QVQLLESGGGLVQPGGSLKLSCVASGFDFSLYWMNWVRQAPGKGLEWIGKISPNSSTINYSPSLKDKFFISRDNAKNTLYLQMTKVRSEDTALYYCARLYIASGGFDYWGQGTTLTVSS
VL: EIVMTQSPASLSASLGQRATISCRASSSVSSSAYSYVHWYQQKSGQPPKLLIYLASDLQSGVPARFSGSGSGTDFTLTIHPVESEDVATYYCHHSRELPYSFGSGTKLEIKR
notes: as for B3
As to B5, the half-maximal effective concentration (EC50) in the experiment with antigen CD38 [11] is 0.0278 µg/mL.
